Source: patent publication US20240101686A1
Like-named read-outs stand apart in the source and are kept apart here.

Assays:
Conditions in all cases: remark: other sources report otherwise
[1] = target: human EGFR on cells (human), P00533
[2] = target: human EGFR endogenously expressed on A431 cells (human), P00533
[3] = target: human EGFR on cells (human), P00533; remark: listed apart in the source
[4] = target: human EGFR on cells (human), P00533; remark: listed apart in the source

Max MFI [1]: 143 | Max MFI [2]: 712 | Max MFI [3]: 88 | Average fluorescence intensity [4]: 528
B1: 30D8-hIgG1 (antibody, V domains shown)
VH: EVQLVESGGGLVKPGGSLRLSCEASGFTFSDAWMSWVRQAPGKGLEWVGRIKSKTDGGTTDYVVPLNGRFIISRDDSRNTLYLQLNNLKTEDTAVYYCTTVPGSYGYWGQGTLVTVSS
VL: DIVMTQSPLSLPVTPGEPASISCRSSQSLLHNKRNNYLDWFLQKPGQSPQLLIYLASNRASGVPDRFSGGGSGTDFTLKISRVEAEDVGVYYCMQAQQTPITFGQGTRLEIK
